Results from paper PMC4476693, “Role of Subunit Exchange and Electrostatic Interactions on the Chaperone Activity of Mycobacterium leprae HSP18” (PLoS ONE, 2015).

Key:
[1] = target: the molecule itself; assay: SEC; analytical gel filtration (TSK-GEL G4000SWXL, HPLC), 25°C, 0.5 mg/ml protein in 50 mM phosphate buffer pH 7.5, no NaCl; column calibrated with molecular weight standards
[2] = target: the molecule itself; assay: SEC; analytical gel filtration (TSK-GEL G4000SWXL, HPLC), 25°C, 0.5 mg/ml protein in 50 mM phosphate buffer pH 7.5 with 0.05, 0.15 or 0.5 M NaCl; number of subunits printed for 0.5 M NaCl

B1: Mycobacterium leprae HSP18 (natural protein, UniProt P12809 1-148, looked up)
chain: MLMRTDPFRELDRFAEQVLGTSARPAVMPMDAWREGEEFVVEFDLPGIKADSLDIDIERNVVTVRAERPGVDPDREMLAAERPRGVFNRQLVLGENLDTERILASYQEGVLKLSIPVAERAKPRKISVDRGNNGHQTINKTAHEIIDA
notes: wild-type small heat shock protein HSP18 (18 kDa antigen) of Mycobacterium leprae; Large homo-oligomer: 29 subunits without NaCl, approximately 12 subunits in 0.5 M NaCl (gel filtration); also called 18 kDa antigen
stoichiometry N [1]: 29 subunits | stoichiometry N [2]: ~12 subunits
